We go through 1 protein from paper PMC2783852 (Archives of biochemistry and biophysics, 2009).

A word on the stoichiometry N: it is the number of molecules, sites or subunits per partner or assembly.

The data set deals with the molecule itself. Description: SEC. (Size exclusion chromatography separates by hydrodynamic size, large species first.)

B1: recombinant human apomanganese superoxide dismutase (enzyme, UniProt P04179 25-222, looked up)
chain: KHSLPDLPYDYGALEPHINAQIMQLHHSKHHAAYVNNLNVTEEKYQEALAKGDVTAQIALQPALKFNGGGHINHSIFWTNLSPNGGGEPKGELLEAIKRDFGSFDKFKEKLTAASVGVQGSGWGWLGFNKERGHLQIAACPNQDPLQGTTGLIPLLGIDVWEHAYYLQYKNVRPDYLKAIWNVINWENVTERYMACKK
With B1, the “stoichiometry N” value worked out at 4.
